Experiment in all cases: shotgun mutagenesis library, immunofluorescence on BHK cells, triplicate, background-subtracted and normalized to WT
The target of test [1] is T1, human MCAM Y318A mutant (shotgun mutagenesis library, on BHK cells) (human, UniProt P43121 24-646).
T1 chain: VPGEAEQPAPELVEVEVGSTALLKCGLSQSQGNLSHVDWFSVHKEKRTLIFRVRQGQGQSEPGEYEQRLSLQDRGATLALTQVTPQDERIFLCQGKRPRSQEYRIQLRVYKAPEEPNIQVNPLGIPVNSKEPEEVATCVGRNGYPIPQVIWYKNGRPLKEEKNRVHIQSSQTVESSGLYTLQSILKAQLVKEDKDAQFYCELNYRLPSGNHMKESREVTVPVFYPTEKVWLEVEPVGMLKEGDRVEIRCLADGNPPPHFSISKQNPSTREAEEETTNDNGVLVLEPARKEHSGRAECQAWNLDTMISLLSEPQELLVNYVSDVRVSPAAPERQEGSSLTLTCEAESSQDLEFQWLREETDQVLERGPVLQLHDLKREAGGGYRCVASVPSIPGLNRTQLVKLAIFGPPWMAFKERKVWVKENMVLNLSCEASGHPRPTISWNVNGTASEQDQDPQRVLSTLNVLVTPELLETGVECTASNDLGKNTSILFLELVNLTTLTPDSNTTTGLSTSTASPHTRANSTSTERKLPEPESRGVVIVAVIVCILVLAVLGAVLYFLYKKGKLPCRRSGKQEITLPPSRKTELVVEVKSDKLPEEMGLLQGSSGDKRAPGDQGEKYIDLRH
The method, then: (§1) The mutation library was assayed for surface expression (mouse sera binding) and monoclonal antibody binding, in triplicate. Each raw data point was background-subtracted and normalized to the wild type MCAM reactivity values. The mean monoclonal antibody binding value for each clone is plotted as a function of its mean surface expression value (FIG. 1, gray diamonds). Thresholds of <30% monoclonal antibody reactivity and >50% mouse sera binding were applied to identify clones (FIG. 1, black diamonds) that were negative for monoclonal antibody binding but positive for surface expression.
(§2) Residues involved in antibody binding were identified as those that were negative for monoclonal antibody binding (<30% WT) but positive for surface expression (>50% WT) (Table 4). The mean reactivity (and standard deviation) were determined for each critical residue.

The target of test [2] is T2, human MCAM W377A mutant (shotgun mutagenesis library, on BHK cells) (human, UniProt P43121 24-646).
T2 chain: T1 chain with A295Y, W354A
The method, then:
as §1, §2

The target of test [3] is T3, human MCAM V340A mutant (shotgun mutagenesis library, on BHK cells) (human, UniProt P43121 24-646).
T3 chain: T1 chain with A295Y, V317A
As to the method:
as §1, §2

The target in test [4] is T4, human MCAM C320A mutant (shotgun mutagenesis library, on BHK cells) (human, UniProt P43121 24-646).
T4 chain: T1 chain with A295Y, C297A
The method, then:
as §1, §2

Positions count from the first letter of the chain named.

B1: mouse anti-human MCAM monoclonal antibody clone 1749.1.3 (antibody, V domains shown)
VH: DVKLVESGGDLVKPGGSLKLSCAASGFTFSSYIMSWVRQTPEKRLEWVATISSGGSSTYYPDSVKGRFTISRDNAKNTLYLQMSSLKSEDTAMYYCTRDDDYDVKVFAYWGQGTLVTVSA
VL: DIVMSQSPSSLAVSAGEKVTMNCKSSRSLLNSRIRKNYLAWYQQKPGQSPKLLIYWASTRESGVPDRFTGSGSGTDFTLTISSVQAEDLAVYYCKQSYNLLTFGAGTKLELK
notes: Mouse hybridoma monoclonal antibody; also called m1749
In the case of B1, the “mean reactivity (% of wild type MCAM), standard deviation in brackets” value in test [1] was 7.1 % of WT; in test [2] it was 13.7 % of WT; in test [3], 8.7 % of WT; in test [4], 9.3 % of WT.

The values are drawn from US20170129954A1 (PROTHENA BIOSCIENCES, published 2017).
